Two molecules from patent US12397052B2, “Microcapsule-based vaccine” (INSTITUTE OF PROCESS ENGINEERING, CHINESE ACADEMY OF …, priority 2018, dated 2025) can be followed below.

The subject of assay [1] is OVA+ cells. In words: Antigen utilization in thigh muscle by flow cytometry (OVA+ cells). It counts as in vivo, C57BL/6 mice. Conditions: 5th day. As for the experimental part: Five days later, the mice were killed, and their muscle tissues containing the microspheres were taken out, cut into small pieces with scissors, ground into a suspension, resuspended in PBS at 4° C., and centrifuged to remove the supernatant. To the centrifugal residue, was added 1 mL of a solution of an enzyme mixture (made by dissolving collagenase D and 100 U/mL recombinant DNase I in RPMI 1640 medium) at a concentration of 1 mg/mL. The mixture was incubated at 37° C. for 30 min, washed with PBS, and subjected to filtration with a 20 μm cell sieve to get rid of impurities, giving a single-cell suspension. […] The BD LSRFortessa flow cytometer was used to detect OVA^+ cells, CD 11c^+OVA^+ cells, and F4/80^+OVA^+ cells, and the data was analyzed using the Flowjo software.
In the embedding group, as a result of the excellent antigen-retention capability and antigen-release capability, the number of OVA^+ cells increased by about 50 times, the endocytosis of OVA increased by 4 times or more, and the utilization of the antigen increased by 200 times or more. […] The utilization of the antigen was calculated by normalizing the number of OVA^+ cells multiplied by the fluorescence intensity using the utilization of the antigen of the simple antigen group.

The test system of assay [2] is E.G7 tumor cells. In words: E.G7 lymphoma solid tumor model.
Protocol: To construct E.G7 tumor-bearing mice models, 1×10^6 E.G7 tumor cells (purchased from ATCC) were injected into 6-8 weeks old female C57BL/6 mice (purchased from Beijing Weitonglihua Experimental Animal Co., Ltd.) on the armpit, and the tumor-bearing mice were randomly divided into groups each consisting of 6 mice. The mice were vaccinated when the tumor grew to a volume of 50-60 mm^3 on the 4th day. […] The volume of the tumor was calculated by this formula: V=1/2×L×W^2 (where L is the length of the tumor, and W is the width of the tumor).

B1: simple antigen group: preparation of a simple fluorescent antigen (OVA labeled with dye Cy5), no carrier (protein, UniProt P01012 2-386, looked up)
Ovalbumin: GSIGAASMEFCFDVFKELKVHHANENIFYCPIAIMSALAMVYLGAKDSTRTQINKVVRFDKLPGFGDSIEAQCGTSVNVHSSLRDILNQITKPNDVYSFSLASRLYAEERYPILPEYLQCVKELYRGGLEPINFQTAADQARELINSWVESQTNGIIRNVLQPSSVDSQTAMVLVNAIVFKGLWEKAFKDEDTQAMPFRVTEQESKPVQMMYQIGLFRVASMASEKMKILELPFASGTMSMLVLLPDEVSGLEQLESIINFEKLTEWTSSNVMEERKIKVYLPRMKMEEKYNLTSVLMAMGITDVFSSSANLSGISSAESLKISQAVHAAHAEINEAGREVVGSAEAGVDAASVSEEFRADHPFLFCIKHIATNAVLFFGRCVSP
modifications: Cy5 dye label
notes: preparation of a simple fluorescent antigen (OVA labeled with dye Cy5), no carrier
Regarding B1, in assay [1], the “fluorescence intensity of intracellular OVA” value was “very weak” and the “number of OVA+ cells” value was “small”.

B2: OVA: free OVA antigen (Sigma), low-dose several times or high-dose (60 μg) a single time (protein, UniProt P01012 2-386, looked up)
Ovalbumin: B1 Ovalbumin
Take B2: the “25-day survival rate (SR)” value in assay [2] (mouse, in vivo) is recorded as 17%. Moreover, the “tumor growth (E.G7)” value in assay [2] (vaccinated on 4th day) was “not inhibited”.
